From paper PMC12337650 (iScience, 2025)

Target: the molecule itself
Experiment: cross-linking

B1: hIRE1α(CD) (residues 469–977) (domain or fragment)
chain: HQQQQLQHQQFQKELEKIQLLQQQQQQLPFHPPGDTAQDGELLDTSGPYSESSGTSSPSTSPRASNHSLCSGSSASKAGSSPSLEQDDGDEETSVVIVGKISFCPKDVLGHGAEGTIVYRGMFDNRDVAVKRILPECFSFADREVQLLRESDEHPNVIRYFCTEKDRQFQYIAIELCAATLQEYVEQKDFAHLGLEPITLLQQTTSGLAHLHSLNIVHRDLKPHNILISMPNAHGKIKAMISDFGLCKKLAVGRHSFSRRSGVPGTEGWIAPEMLSEDCKENPTYTVDIFSAGCVFYYVISEGSHPFGKSLQRQANILLGACSLDCLHPEKHEDVIARELIEKMIAMDPQKRPSAKHVLKHPFFWSLEKQLQFFQDVSDRIEKESLDGPIVKQLERGGRAVVKMDWRENITVPLQTDLRKFRTYKGGSVRDLLRAMRNKKHHYRELPAEVRETLGSLPDDFVCYFTSRFPHLLAHTYRAMELCSHERLFQPYYFHEPPEPQPPVTPDAL
binding result: binds
